# T1: recombinant 20α-HSD (Rattus norvegicus, UniProt P51652)
# T1 sequence (P51652 1-323): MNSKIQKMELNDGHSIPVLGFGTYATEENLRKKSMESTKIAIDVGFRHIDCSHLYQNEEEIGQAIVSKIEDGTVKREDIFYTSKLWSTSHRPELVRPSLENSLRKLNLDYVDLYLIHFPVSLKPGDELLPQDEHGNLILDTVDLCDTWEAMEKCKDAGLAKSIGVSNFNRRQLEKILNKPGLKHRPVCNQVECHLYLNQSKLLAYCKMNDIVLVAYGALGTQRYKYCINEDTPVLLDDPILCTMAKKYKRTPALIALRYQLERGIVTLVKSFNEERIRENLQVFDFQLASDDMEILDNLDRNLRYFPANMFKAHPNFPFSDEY
# Key:
# 20α-HSD mRNA = test: Northern blot of corpus luteum 20α-HSD mRNA in hypophysectomized pregnant rats; assay type: in vivo, rat; conditions: rats hypophysectomized day 3, 125 μg twice daily, tissue on day 7
# Experimental: For these studies, Holtzman pregnant rats were hypophysectomized on day 3 and treated with either prolactin (NIADDK oPRL-18, 125 μg, twice daily) or with vehicle (control). On day 7, corpus luteum and various other tissues (brain, decidua, ovary, and uterus) were obtained for analysis.
# Total RNA from the harvested tissues was isolated by the method of Chomzynski and Sacchi [Anal. Biochem. 162:156-159 (1984)] and equal aliquots (20 μg) were electrophoresized and transferred to nylon membranes, or slot blotted onto Genescreen (DuPont, Wilmington, Del.) membrane. RNA was prehybridized for 16 hours at 42° C. in 40% formamide, 6×SSC, 5×Denhardt's, 20 mM NaH2 PO4, 0.2% SDS and 100 μg/ml salmon sperm DNA. Hybridization was completed in the same solution with the addition of ^32 P-labeled rat 20α-HSD cDNA (10^6 cpm/ml) at 42° C. for 12-16 hours. Blots were washed twice in 05.×SSC and 0.1% SDS (15 minutes, room temperature), twice in 0.2×SSC and 0.1% SDS (15 minutes, 42° C.), twice in 0.2×SSC and 0.1% SDS (15 minutes, 56° C.) and twice in 01.×SSC and 0.1% SDS (15 minutes, 56° C.).
# [1] = system: insulin receptor-associated tyrosine kinase; test: In vitro kinase assay, phosphorylation of 20α-HSD by insulin receptor tyrosine kinase; assay type: biochemical; conditions: bacterially expressed enzyme
# Experimental: (§1) Purified recombinant 20α-HSD (of the bacterial expression system) was incubated with various protein kinases after an initial incubation with alkaline phosphatase (to ensure that the protein was in a non-phosphorylated state) and subsequently assayed for 20α-HSD activity.
# (§2) More particularly, purified bacterially expressed recombinant 20α-HSDwas first incubated in […] Tris-HCl (pH 8), 1 mM MgCl2, 1 mg/ml BSA, 0.5 mM dithiothreitol, and 60 U alkaline phosphatase coupled to agarose beads for 30 min. at 30° C. After centrifugation, the supernatant containing 20α-HSD was used as a substrate in various in vitro kinase assays. The protein kinase A (PKA), protein kinase C (PKC) and insulin receptor-associated tyrosine kinase activities were measured as described previously [Raz et al., Biochem. J. 269:603-607 (1990), Azhar et al., Am J. Physiol, 260:E1-E7 (1991)]. src kinase (p60^src) activity was assayed as described by Simonson and Herman [Simonson et al., J. Biol Chem., 268:9347-9357 (1993)].
# [2] = system: Pregnant Sprague-Dawley rats; test: Anti-reproductive effect in pregnant rats: serum progesterone (RIA) and termination of pregnancy; assay type: in vivo, rat
# Experimental: Pregnant Sprague-Dawley rats were treated with purified 20α-HSD produced by a bacterial expression system (see Example 1) to assess the effect of the enzyme on (1) progesterone levels and (2) the possible termination of pregnancy. More particularly, animals were divided into two treatment groups (7 rats per group: 6 receiving treatment, 1 control) and were injected (intraperitoneally) with the purified recombinant 20α-HSD and an eqimolar dose of NADPH. Injections were administered on day 8 of pregnancy and continued for 72 hours.
# Group 1 received intraperitoneal injections of the purified 20α-HSD (167 μg with an equimolar dose of NADPH) every 4 hours, continuing for 72 hours. Group 2 received intraperitoneal injections of the purified 20α-HSD (250 μg with an equimolar dose of NADPH) every 6 hours, continuing for 72 hours. The control treatment groups received an equal amount of GST alone with an eqimolar dose of NADPH. Blood samples were collected every 12 hours via jugular veins. Serum progesterone levels were determined by standard radioimmunoassay techniques [Gibori et al., Endocrinology 100:1483-1495 (1977)].
# src kinase (p60^src) = test: In vitro kinase assay, phosphorylation of 20α-HSD by src kinase; assay type: biochemical; conditions: bacterially expressed enzyme
# Experimental: as §1, §2
# protein kinase A (PKA) = test: In vitro kinase assay, phosphorylation of 20α-HSD by PKA; assay type: biochemical; conditions: bacterially expressed enzyme, [γ-32P]ATP
# Experimental: as §1
# as §2, with “(1993)]. […]” for “(1993)].”
# [3] = Cyclooxygenase assay: conversion of [3H]arachidonic acid; assay type: biochemical; conditions: purified preparations from either expression system
# Experimental: (§3) To test for prostaglandin endoperoxide synthase type catalytic activity of recombinant 20α-HSD, both cyclooxygenase activity (which converts arachidonic acid into the hydroperoxide, PGG2) and peroxidase activity (which reduces PGG2 and other hydroperoxides to the corresponding alcohol, such as PGH2) were measured. The cyclooxygenase assay was performed by following the conversion of [^3 H] arachidonic acid [Dupont-New England Nuclear Research Products, Boston, Mass.] to [^3 H]PHG2 and [^3 H]PHE2 [Mitchell et al. Proc. Natl. Acad. Sci. USA 90:11693-11697, 1994]. Peroxidase activity was measured by monitoring the oxidation of N,N,N',N', tetramethyl-p-phenylenediamine at 611 nm [Iwata et al., Arch. Biochem. Biophys. 282:70-77 (1990)].
# recombinant 20α-HSD = biological target: T1, recombinant 20α-HSD; test: Catalytic activity of phosphorylated versus non-phosphorylated 20α-HSD, radiochemical; assay type: biochemical; design: a DNA fragment of 1.2 Kb containing the entire coding region of 20α-HSD; GST (removed with thrombin) (N, cleaved yes); made in house; host or cells: E. coli DH5α (pGEX-4T-2)
# Experimental: Enzyme activity of the recombinant 20α-HSD was determined by the rate of conversion of [1-2^3 H]-20α-hydroxy-pregn-4-ene-3-one (20α-hydroxprogesterone) to [1,2^3 H]progesterone in the presence of NADPH as described by Jones & Hsueh [J. Biol. Chem. 256:1248-1254 (1981)]. Enzyme activity was measured in this manner due to the fact that in an in vitro setting the reaction may be reversed, i.e. conversion of 20α-hydroxyprogesterone to progesterone. The assay mixtures (0.05 ml) contained 100 μM [1,2^3 H]hydroxyprogesterone [Dupont-New England Nuclear Research Products, Boston Mass.] […] Following incubation at 37° C. for 30 minutes, the [^3 H]progesterone content of each sample was determined after isolation by thin layer chromatography isolation. One unit of enzyme activity is defined as that amount of enzyme catalyzing the formation of 1 nmol of [^3 H]progesterone/minute from [1,2^3 H]hydroxyprogesterone. Specific activity is expressed as units/min/mg protein. The protein concentration was determined by the Bradford method using bovine serum albumin [Sigma Chemical Co, St. Louis, Mo.] as the standard [Bradford, Anal. Biochem. 72:248-254 (1976)]. […] Acta. 799:51-58 (1984); Noda et al., Biochim Biophys. Acta. 1079:112-118 (1991)]. […]
# [4] = Peroxidase activity: oxidation of tetramethyl-p-phenylenediamine at 611 nm; assay type: biochemical; conditions: purified preparations from either expression system
# Experimental: as §3
# purified rat liver PKC = test: In vitro kinase assay, phosphorylation of 20α-HSD by PKC; assay type: biochemical; conditions: bacterially expressed enzyme, [γ-32P]ATP
# Experimental: as §1
# as §2, with “(1993)]. […]” for “(1993)].”
# [5] = Group 1 protocol, laparoscopy at 72 hour end point
phosphorylation of 20α-HSD by insulin-receptor-associated tyrosine kinase [1],phosphorylation of 20α-HSD by src kinase (src kinase (p60^src)),phosphorylation of 20α-HSD by PKA (protein kinase A (PKA)),20α-HSD activity after phosphorylation with PKA (recombinant 20α-HSD),"20α-HSD activity after phosphorylation with PKC (recombinant 20α-HSD; ATP-Mg2+, diacylglycerol, phosphatidylserine)",phosphorylation of 20α-HSD by PKC (purified rat liver PKC),Molecule,expression of 20α-HSD mRNA in corpora lutea (20α-HSD mRNA),time to significant decline of serum progesterone levels ([2]; Group 1: 167 μg i.p. every 4 hours),"animals aborted totally [2, 5]","animals partially aborting [2, 5]",time to significant decline of serum progesterone levels ([2]; Group 2: 250 μg i.p. every 6 hours),"time to termination of pregnancy ([2]; pregnant rats, i.p. with equimolar NADPH from day 8 of pregnancy)","circulating progesterone ([2]; pregnant rats, i.p. with equimolar NADPH from day 8 of pregnancy, bacterially expressed enzyme)",cyclooxygenase activity [3],peroxidase activity [4]
–,–,–,–,–,–,"prolactin (protein, UniProt P01240 31-229, looked up, prolactin (NIADDK oPRL-18)) Prolactin: TPVCPNGPGNCQVSLRDLFDRAVMVSHYIHNLSSEMFNEFDKRYAQGKGFITMALNSCHTSSLPTPEDKEQAQQTHHEVLMSLILGLLRSWNDPLYHLVTEVRGMKGVPDAILSRAIEIEEENKRLLEGMEMIFGQVIPGAKETEPYPVWSGLPSLQTKDEDARHSAFYNLLHCLRRDSSKIDTYLKLLNCRIIYNNNC",markedly reduced,–,–,–,–,–,–,–,–
failed to phosphorylate,failed to phosphorylate,readily phosphorylated,not significantly affected,unaffected,readily phosphorylated,20α-hydroxysteroid dehydrogenase (protein) MNSKIQKMELNDGHSIPVLGFGTYATEENLRKKSMESTKIAIDVGFRHIDCSHLYQNEEEIGQAIVSKIEDGTVKREDIFYTSKLWSTSHRPELVRPSLENSLRKLNLDYVDLYLIHFPVSLKPGDELLPQDEHGNLILDTVDLCDTWEAMEKCKDAGLAKSIGVSNFNRRQLEKILNKPGLKHRPVCNQVECHLYLNQSKLLAYCKMNDIVLVAYGALGTQRYKYCINEDTPVLLDDPILCTMAKKYKRTPALIALRYQLERGIVTLVKSFNEERIRENLQVFDFQLASDDMEILDNLDRNLRYFPANMFKAHPNFPFSDEY,–,≤ 48 h,5 animals,2 animals,60 h,≤ 72 h,marked decrease,Neither peroxidase not cyclooxygenase activity was detected,Neither peroxidase not cyclooxygenase activity was detected
